The target of test [1] is Calmodulin labeled with Cyanine5 (not stated (human brain CaM or recombinant bovine CaM bought)). The experiment in a line: MST.
The target in test [2] is Calmodulin (not stated (human brain CaM or recombinant bovine CaM bought)) (UniProt P0DP23). As to the kind of experiment: SPR. (In general: SPR reads the build-up and loss of mass on a sensor chip optically.)

Chain of Full-length recombinant human neurogranin with a His-tag at the N-terminus (Q92686 whole entry): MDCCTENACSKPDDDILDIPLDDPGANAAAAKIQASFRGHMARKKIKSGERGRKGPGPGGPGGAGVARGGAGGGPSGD

As to “Full-length recombinant human neurogranin with a His-tag at the N-terminus (from UniProt Q92686) (natural protein)”, the Kd in test [1] came out at 890 nM. In the case of “IQ-motif containing peptide of neurogranin (Ng 27-50) (from UniProt Q92686 27-50)”, the Kd in test [2] came to 14000 nM. With “Peptide corresponding to the CaM-binding region of CaMKIIα (CaMKII 290-309) (from UniProt Q9UQM7 290-309)”, in test [1], the Kd was 190 nM.

In general, Kd refers to the equilibrium constant for the complex coming apart.

These data come from article PMC5518211.
